Experimental data from publication PMC9638919, “DAZL regulates proliferation of human primordial germ cells by direct binding to precursor miRNAs and enhances DICER processing activity”.

T1: GST-DAZL (UniProt Q92904 1-295)
T1 sequence: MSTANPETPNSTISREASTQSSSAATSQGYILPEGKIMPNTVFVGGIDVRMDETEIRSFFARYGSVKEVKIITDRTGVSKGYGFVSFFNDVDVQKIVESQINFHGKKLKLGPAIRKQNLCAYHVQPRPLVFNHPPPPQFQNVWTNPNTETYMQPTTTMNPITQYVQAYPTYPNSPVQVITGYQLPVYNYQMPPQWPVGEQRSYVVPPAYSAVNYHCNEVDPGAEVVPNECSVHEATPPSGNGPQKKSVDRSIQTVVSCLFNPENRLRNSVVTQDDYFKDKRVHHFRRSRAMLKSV

T2: GST-RRM (DAZL RRM domain) (UniProt Q92904 40-115)
T2 sequence: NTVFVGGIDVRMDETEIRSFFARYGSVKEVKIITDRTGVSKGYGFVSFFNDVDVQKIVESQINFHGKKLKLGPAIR

B1: pre-let-7c loop, second U to A in both GUU (ssRNA)
RNA: UAGAGAUACACCCUGGGAGAUAA
B2: pre-miR-199a (structured_RNA)
RNA: GCCAACCCAGUGUUCAGACUACCUGUUCAGGAGGCUCUCAAUGUGUACAGUAGUCUGCACAUUGGUUAGGC
B3: pre-let-7c loop (ssRNA)
RNA: UAGAGUUACACCCUGGGAGUUAA
B4: pre-let-7i (structured_RNA)
RNA: CUGGCUGAGGUAGUAGUUUGUGCUGUUGGUCGGGUUGUGACAUUGCCCGCUGUGGAGAUAACUGCGCAAGCUACUGCCUUGCUA
B5: pre-miR-185 (structured_RNA)
RNA: AGGGGGCGAGGGAUUGGAGAGAAAGGCAGUUCCUGAUGGUCCCCUCCCCAGGGGCUGGCUUUCCUCUGGUCCUUCCCUCCCA
B6: pre-let-7c loop, first G to A in both GUU (ssRNA)
RNA: UAGAAUUACACCCUGGGAAUUAA
B7: pre-let-7c (structured_RNA)
RNA: GCAUCCGGGUUGAGGUAGUAGGUUGUAUGGUUUAGAGUUACACCCUGGGAGUUAACUGUACAACCUUCUAGCUUUCCUUGGAGC

Columns and labels:
[1] = target: T1, GST-DAZL; assay: EMSA; only slightly affected vs wild type; 10 mM HEPES pH 7.4, 50 mM KCl, 1 mM EDTA, 0.05% Triton X-100, 5% glycerol, 0.01 mg/ml BSA, 1 mM DTT; 10 nM FAM-RNA, 40 min; temperature not stated; conditions: protein: recombinant; tags: N-terminal GST; label: 5'-FAM
[2] = target: T1, GST-DAZL; assay: EMSA; 3000 nM DAZL; 10 mM HEPES pH 7.4, 50 mM KCl, 1 mM EDTA, 0.05% Triton X-100, 5% glycerol, 0.01 mg/ml BSA, 1 mM DTT; 10 nM FAM-RNA, 40 min; temperature not stated; conditions: protein: recombinant; tags: N-terminal GST; label: 5'-FAM; hairpin
[3] = target: T1, GST-DAZL; assay: EMSA; 5000 nM DAZL; 10 mM HEPES pH 7.4, 50 mM KCl, 1 mM EDTA, 0.05% Triton X-100, 5% glycerol, 0.01 mg/ml BSA, 1 mM DTT; 10 nM FAM-RNA, 40 min; temperature not stated; conditions: protein: recombinant; tags: N-terminal GST; label: 5'-FAM; hairpin
[4] = target: T1, GST-DAZL; assay: EMSA; 10 mM HEPES pH 7.4, 50 mM KCl, 1 mM EDTA, 0.05% Triton X-100, 5% glycerol, 0.01 mg/ml BSA, 1 mM DTT; 10 nM FAM-RNA, 40 min; temperature not stated; conditions: protein: recombinant; tags: N-terminal GST; label: 5'-FAM
[5] = target: T2, GST-RRM (DAZL RRM domain); assay: as above; conditions: protein: recombinant; tags: N-terminal GST; label: 5'-FAM; hairpin

Row | Binder | binding signal [2] [% shifted] | binding signal [3] [% shifted] | further results
1 | B1 | – | – | binding result [1]: binds
2 | B2 | 18.1 | 22.1 | –
3 | B3 | – | – | binding result [4]: binds
4 | B4 | 37 | 50.9 | –
5 | B5 | – | – | binding result [5]: no binding
6 | B6 | – | – | binding result [1]: binds
7 | B7 | 37.4 | 41.3 | –
